Residue numbers refer to the chain shown, from its start.
Target: T1, human DLL3 (human, UniProt Q9NYJ7 27-492, limits assumed)
T1 construct: also called hDLL3; DLL3 protein
T1 sequence: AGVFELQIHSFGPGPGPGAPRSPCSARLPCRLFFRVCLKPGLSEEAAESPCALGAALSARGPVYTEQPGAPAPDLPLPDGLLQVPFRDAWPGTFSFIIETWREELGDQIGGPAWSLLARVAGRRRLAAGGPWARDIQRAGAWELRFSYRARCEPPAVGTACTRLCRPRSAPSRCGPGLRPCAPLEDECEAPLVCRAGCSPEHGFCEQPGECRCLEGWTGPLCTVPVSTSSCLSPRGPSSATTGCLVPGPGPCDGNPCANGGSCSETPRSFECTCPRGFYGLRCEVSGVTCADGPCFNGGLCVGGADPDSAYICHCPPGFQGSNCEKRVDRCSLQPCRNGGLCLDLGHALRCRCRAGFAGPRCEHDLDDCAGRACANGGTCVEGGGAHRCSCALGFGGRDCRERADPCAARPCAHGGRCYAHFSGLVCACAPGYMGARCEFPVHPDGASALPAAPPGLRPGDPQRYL
Test: screen on immobilized hDLL3 or h293-hDLL3 cells
In short: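 Solid-phase ELISA on DLL3-His (0.5 μg/ml coating), developed with HRP anti-mouse IgG and TMB and read at OD 450, was one screen for supernatants of single-cell hybridomas from human DLL3-immunized mice taken after 10 days in culture. Flow-cytometry binding counted as positive only above the control.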

B1: SC16.52 (antibody, V domains shown)
VH: QVQLKESGPGLVAPSQSLSITCAVSGFSLTSFAIHWFRKPPGKGLEWLGVIWTGGTTNYNSALMSRLSISKDNSKSQVFLKMNSLQTDDTAMYYCARDDYDNNYAMDYWGQGTSVTVSS
VL: DIQMIQSPSSMFASLGDRVSLSCRASQGIRGTLDWYQQKPNGTIKLLIYSTSNLNSGVPSRFSGSGSGSDYSLTISSLESEDFADYYCLQRNAYPLTFGAGTKLELK
notes: murine mAb
  binding result: binds

B2: SC16.5 (antibody, V domains shown)
VH: QVTLKESGPGILQPSQTLSLTCSFSGFSLSTSGMGVGWIRQPSGEGLEWLADIWWDDNKYYNPSLKSRLTISKDTSSNQVFLKITSVDTADTATYYCARRVNYVYDPYYAMDYWGQGTSVTVSS
VL: QIVLTQSPAIMSASPGEKVTMTCSASSSVSYMHWYQQKSGTSPKRWIYDTSKLASGVPARFSGSGSGTSYSLTISSMEAEDAATYYCQQWTRNPLTFGAGTKLELK
notes: murine mAb
  binding result: binds

B3: SC16.25 (antibody, V domains shown)
VH: B2 VH with A51T, K83N, V104Y
VL: B2 VL with T50S, T91S, R92S
notes: murine mAb
  binding result: binds

B4: SC16.18 (antibody, V domains shown)
VH: EVKLEESGGGLVQPGESMKLSCAASGFTFSDAWMDWVRQSPEKGLEWVAEIRNKANNHATYYAESVKGKFTISRDDSKSRVYLQMNNLRAADTGIYYCTAYSNFAYWGQGTLVTVST
VL: DIQMTQTTSSLSASLGDRVTISCRASQNIINYLNWYQQKPDGTVKLLIYYTSRLHSGVPSRFSGSGSGTDYSLTISNLEPEDIATYYCQQYSERPYTFGGGTKLEIK
notes: murine mAb
  binding result: binds

B5: SC16.4 (antibody, V domains shown)
VH: QIQLVQSGPELKKPGETVKISCKASGYTFTDYSMHWVKQAPGKGLKWMGWINTETGEPGYADDFKGRFAFSLETSASTAYLQINNLKNEDTATYFCARYDGYAMDYWGQGTSVTVSS
VL: B4 VL with N28D, I30S, P80L, Y87F, Y91G, S92D, E93M, R94L, Y96W
notes: murine mAb
  binding result: binds

B6: SC16.35 (antibody, V domains shown)
VH: DVQLQESGPGLVKPSQSLSLTCTVTGYSITSDYAWNWIRQFPGNKLEWMGYISYSGSTSYNPSLKSRISITRDTSKNQFFLQLNSVTTEDTATYYCARFYYGSSYAMDYWGQGTSVTVSS
VL: B4 VL with N28D, I30S, P80Q, Y87F, Y91G, S92N, E93T, R94L
notes: murine mAb
  binding result: binds

B7: SC16.41 (antibody, V domains shown)
VH: B4 VH with P14F, E16G, A63P, K69R, A91E, A100G, N103S, T117A
VL: B4 VL with N28D, I29V, G68R
notes: murine mAb
  binding result: binds

B8: SC16.49 (antibody, V domains shown)
VH: QVQLQQSGPELVKPGTLVKISCKASGYTFTSYDINWVKQRPGQGLEWIGWIYPGDGNTKYSEKFKGKATLTADKSSSTAYMQLTSLTSENSAVYFCARDYDYPFAYWGQGTLVTVSA
VL: DIKMTQSPSSMYASLGERVTITCKASQDINSYLSWFQQKPGKSPKTLIYRANRLVDGVPSRFSGSGSGQDYSLTITSLEYEDMGIYYCLQYDEFPLTFGAGTKLELK
notes: murine mAb
  binding result: binds

B9: SC16.55 (antibody, V domains shown)
VH: EVQLVESGGGLVQPKGSLKLSCAVSAFTFTTYAMNWVRQAPGKGLEWVARIRNKSNNYATYYADSVKDRFTISRDDSQSMLYLQMNNLKIEDTAMYYCVFYYDYVYWGQGTLVTVSA
VL: B8 VL with S34N, T76S, L96Y, A100G, L106I
notes: murine mAb
  binding result: binds

B10: SC16.57 (antibody, V domains shown)
VH: EVKLVESGGDLVKPGGSLKLSCAASGFAFSSYDMSWVRQTPEKRLEWVATISSGGSYTYYPDSVKGRFTISRDNVRDTLYLQMSSLRSEDTALYYCARQAIGTYFDYWGQGTTLTVSS
VL: DIVMTQSHKFMSISVGDRVSITCKASQDVSIFVAWYQQKPGQSPKLLIYSASYRYTGVPDRFTGSGSGTDFIFTISSVQAEDLAVYYCQQHYGTPFTFGSGTKLKIR
notes: murine mAb
  binding result: binds

B11: SC16.38 (antibody, V domains shown)
VH: EVQLQQSGAELVKPGASVKLSCTVSGFNIKDTYIHWVKQRPEQGLEWIGRIDPANGNTKYDPKFQGKATITADTSSNTAYLQLSSLTSEDTAVYYCARPTGYFEYWGQGTTLTVSS
VL: QIVLTQSPAIMSASPGEKVTMTCSASSSINYMHWYQQKPGTSPKRWIYDTSKLASGVPARFSGSGSGTSYSLTISSMEAEDAATYYCHQRSTWTFGGGTKLEIK
notes: murine mAb
  binding result: binds

B12: SC16.29 (antibody, V domains shown)
VH: QVQLQQSGAELARPGASVKLSCKASGYTFTDQYINWVKQRTGQGLEWIGEIYPGRGNTYYNEKFKGKATLTADKSSSTAYMQLSSLTSEDSAVYFCAREDGGYDDAWFAYWGQGTLVTVSA
VL: QIVLTQSPAIMSASPGEKVTITCSASSSVSYMHWFQQKPGTSPKLWIYTTSNLASGVPARFSGSGSGTSYSLTVSRMEAEDAATYYCQQRSLYPYTFGGGTKVEIK
notes: murine mAb
  binding result: binds

B13: SC16.20 (antibody, V domains shown)
VH: QVQLQQSGTELVRPGTSVRVSCKASGYAFGNHLIEWVKQRPGQGLEWIGVINPGTGGTHYNEKFKDKARLTADKSSNTAYMHLNSLTSDDSAVYFCARSPYDYHEGAMDYWGQGTSVTVSS
VL: EIQMTQSPSSMSASLGDRITITCQATQDIVKNLNWYQQKPGKPPSFLIYYATELAEGVPSRFSGSGSGSDYSLTIRNLESEDFADHYCLQFYEFPFTFGAGTKLELK
notes: murine mAb
  binding result: binds

B14: SC16.45 (antibody, V domains shown)
VH: QVQLQQSGADLVRPGTSVKVSCKASGYSFTNYLIEWVKQRPGQGLEWIGVINPGSGGTHYNEKFKDKAVLTADKSSTTAHMQLSSLTSDDSAVYFCARSPYDYNDGAMDYWGQGTSVTVSS
VL: B13 VL with S60A, R76S, H86Y, Y87H
notes: murine mAb
  binding result: binds

B15: SC16.47 (antibody, V domains shown)
VH: EVQLQQSGPELVKPGASVKISCKASGYSFSRFYMHWVKQSPENSLEWIGEINPSTGGTSYNQKFKGKATLTVDKSSSTAYMQLKSLTSEESAVYYCTRGYGSNCYFDVWGAGTTVTVST
VL: DVVLTQSPLSLPVNIGDQASISCKSTKSLLNSDGFTYLDWYLQRPGQSPQFLIYLVSNRFSGVPDRFSGSGSGTDFTLKISRVEAEDLGVYYCFQSNYLPLTFGAGTKLELR
notes: murine mAb
  binding result: binds

B16: SC16.3 (antibody, V domains shown)
VH: QVTLKESGPGILQPSQTLSLTCSFSGFSLSTSGMGVGWIRQPSGKGLEWLAHIWWDDVKRYNPALKSRLTISKDTSSSQVFLKIASVDTADTATYYCARIADYGGDYYAMDYWGQGTSVTVSS
VL: QIVLTQSPAIMSVSLGERVTMTCTASSSVSSSYLHWYQQKPGSSPKLWIYSTSNLASGVPARFSGSGSGTSYFFTISSMEAEDAATYYCHQYHRSPFTFGAGTKLKIR
notes: murine mAb
  binding result: binds

B17: SC16.30 (antibody, V domains shown)
VH: QVTLKESGPGILQPSQTLSLTCSFSGFSLSTSGMGVGWIRQPSGKGLEWLAHIWWDDVKRYKPALKSRLTVSKDTSSNQVFLKIATVDAADTGTYYCARIVDGHPPFAYWGQGTLVTVSA
VL: B16 VL with A9T, V13A, S30T, F73S, F74L, Y92F, A101S, K106E, R108K
notes: murine mAb
  binding result: binds

B18: SC16.19 (antibody, V domains shown)
VH: EVQLQQSGAELVRPGASVKLSCTASGFNIKDSLLHWVKQRPEKGLEWIGWIDPEDGETKYAPNFQDKATITTDSSSNTAYLQLISLTSVDTAIYYCAYGNYVRHFDYWGQGTTLTVSS
VL: DIQMTQSPSSLSASLGGKVTFTCKASQDIHKYVAWYQHKPGKGPRLLIHYTSTLQPGISSRFSGSGSGRDYSFSISNLEPEDIATYYCLQYNNLYTFGGGTKLEIK
notes: murine mAb
  binding result: binds

B19: SC16.21 (antibody, V domains shown)
VH: QVQLQQSGPELVKPGASVKISCKASGYAFSSSWMNWVKQRPGKGLEWIGRIYPGDGDTNYNGKFKGKATLTADKSSSTAYMQLSSLTSEDSAVYFCAMGIYNYDGSRYYSMDYWGQGTSVTVSS
VL: DIVMTQSPSSLAMSVGQKVTMSCKSSQSLLNSSNQKNYLAWYQQEPGQSPKLLVSFASTRESGVPDRFTGSGSGTDFTLTISGVQAEDLAVYYCQQHYSIPLTFGAGTKLELK
notes: murine mAb
  binding result: binds

B20: SC16.42 (antibody, V domains shown)
VH: QIQLVQSGPELKKPGETVKISCKASGYTFTTAGMQWVQKMPGKGFKWIGWINTHSGEPKYADDFKGRFAFSLETSASTAYLQISNLKDEDTATFFCAPLWSDSSFAYWGQGTLVTVSA
VL: DVLMTQSPLSLSVSLGDQASISCRSSQNIVHSDRYTYLEWYLQKPGQSPKLLIYGVSNRFSGVPDRFSGSGSGTDFTLKISRVEAEDMGVYYCFQGTHVPYTFGGGTKLEIK
notes: murine mAb
  binding result: binds

B21: SC16.22 (antibody, V domains shown)
VH: QVQLQQPGAELVKPGASVKLSCKASGYTFTTYWMHWVKQRPGQGLEWIGEIDPSDSYTYYNQKFKGKATLTVDKSSSTAYMQLSSLTSEDSAVYYCARGDYGNPYAMDYWGQGSSVTVSS
VL: DIQMTQTTSSLSASLGDRVTISCRASQDIKNYLNWYQQKPDGTVKPLIYYTSRVHSGVPSRFSGSGSGTDYSLTISNLEQEDIATYFCQQGYTLPFTFGSGTKLEIK
notes: murine mAb
  binding result: binds
